Results on 8 molecules are retold here after US11472855, “RNA-binding protein” (Panitch Schwarze Belisario & Nadel LLP).

Common to all, as to conditions: label: Alexa680 at 5' and 3'
For data set [1], the target named is T1, hPUF_MT(1-2-6-5-6-5-6-7-8).
T1 chain: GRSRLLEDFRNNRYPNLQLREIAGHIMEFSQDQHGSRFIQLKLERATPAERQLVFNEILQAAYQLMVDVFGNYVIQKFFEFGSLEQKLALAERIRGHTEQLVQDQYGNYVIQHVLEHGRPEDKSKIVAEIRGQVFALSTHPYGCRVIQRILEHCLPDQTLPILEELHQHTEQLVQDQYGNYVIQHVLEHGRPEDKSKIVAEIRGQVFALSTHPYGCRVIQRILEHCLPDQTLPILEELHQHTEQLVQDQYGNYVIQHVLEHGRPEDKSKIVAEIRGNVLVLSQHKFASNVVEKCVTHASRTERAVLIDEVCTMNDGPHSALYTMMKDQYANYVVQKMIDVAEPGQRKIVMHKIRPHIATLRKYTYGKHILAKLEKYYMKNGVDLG
Put plainly: EMSA. Background: A gel shift assay detects complexes by their altered migration in electrophoresis.

For data set [2], the target named is T2, hPUF_MT(R1_S12N, R3→R5, R4→R6) (R1 repeat S12N).
T2 chain: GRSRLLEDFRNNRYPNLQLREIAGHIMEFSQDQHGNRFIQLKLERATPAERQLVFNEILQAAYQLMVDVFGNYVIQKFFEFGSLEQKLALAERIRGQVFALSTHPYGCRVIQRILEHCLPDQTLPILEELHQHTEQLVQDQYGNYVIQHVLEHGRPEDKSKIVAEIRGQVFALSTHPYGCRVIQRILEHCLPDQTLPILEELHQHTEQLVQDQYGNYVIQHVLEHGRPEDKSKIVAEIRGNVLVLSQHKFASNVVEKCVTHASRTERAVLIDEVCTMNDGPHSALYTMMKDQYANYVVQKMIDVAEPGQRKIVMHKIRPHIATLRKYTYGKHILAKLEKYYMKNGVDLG
Nature of the data set: EMSA; U>C>>G=A.

Data set [3] deals with T3, hPUF_MT(R3→R5, R4→R6).
T3 chain: T2 chain with N36S
Put plainly: EMSA; U=C>A>G at R1 position; backbone printed as R4→R5.

Data set [4] addresses T3, hPUF_MT(R3→R5, R4→R6). Nature of the data set: EMSA; U=C>A>G at R1 position.
The target of data set [5] is T4, hPUF_MT(R1_Q16R, R3→R5, R4→R6) (R1 repeat Q16R).
T4 chain: T2 chain with N36S, Q40R
Nature of the data set: EMSA; C>U>>G>A; printed as Q16E (C recognition).

Data set [6] has as its target T5, hPUF_MT(1-2-5-5-6-5-6-7-8).
T5 chain: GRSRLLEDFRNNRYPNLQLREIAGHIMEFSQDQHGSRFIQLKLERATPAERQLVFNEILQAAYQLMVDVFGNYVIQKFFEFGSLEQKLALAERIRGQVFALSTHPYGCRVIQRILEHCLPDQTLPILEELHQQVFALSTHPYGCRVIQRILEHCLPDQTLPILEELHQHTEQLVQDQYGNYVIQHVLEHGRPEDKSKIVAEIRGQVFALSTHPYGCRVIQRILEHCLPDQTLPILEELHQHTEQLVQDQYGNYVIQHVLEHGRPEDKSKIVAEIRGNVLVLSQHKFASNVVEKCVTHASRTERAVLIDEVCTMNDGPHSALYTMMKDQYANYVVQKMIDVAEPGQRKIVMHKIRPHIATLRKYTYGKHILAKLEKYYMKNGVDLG
Nature of the data set: EMSA.

Data set [7] concerns the target T6, hPUF_MT(R8_N12C, R3→R5, R4→R6) (R8 repeat N12C).
T6 chain: T2 chain with N36S, N295C
Nature of the data set: EMSA; no binding.

The target of data set [8] is T7, hPUF_MT(R8_N12S, R3→R5, R4→R6) (R8 repeat N12S).
T7 chain: T2 chain with N36S, N295S
Nature of the data set: EMSA; no binding.

For a further data set, the target named is T8, hPUF_MT(R8→R5) (UniProt Q14671 SEQ:1-349).
T8 chain: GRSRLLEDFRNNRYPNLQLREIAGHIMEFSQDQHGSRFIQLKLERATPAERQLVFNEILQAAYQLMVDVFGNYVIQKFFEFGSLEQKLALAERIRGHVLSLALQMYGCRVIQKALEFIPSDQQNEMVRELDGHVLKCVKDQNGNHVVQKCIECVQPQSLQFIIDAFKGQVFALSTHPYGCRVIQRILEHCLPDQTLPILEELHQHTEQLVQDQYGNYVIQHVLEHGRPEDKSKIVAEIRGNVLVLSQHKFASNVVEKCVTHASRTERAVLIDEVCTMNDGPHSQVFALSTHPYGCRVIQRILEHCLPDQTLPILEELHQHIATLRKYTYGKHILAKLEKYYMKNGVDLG
Put plainly: EMSA; substantially no binding.

Data set [9] has as its target T3, hPUF_MT(R3→R5, R4→R6). Nature of the data set: EMSA; binds U exclusively at R8 position.
Data set [10] addresses T9, hPUF_MT(R1_Q16E, R3→R5, R4→R6) (R1 repeat Q16E).
T9 chain: T2 chain with N36S, Q40E
Put plainly: EMSA; G>>U=C.

For data set [11], the target named is T10, hPUF_MT(R7_S12C,E16Q, R3→R5, R4→R6) (R7 repeat S12C,E16Q).
T10 chain: T2 chain with N36S, S252C, E256Q
Nature of the data set: EMSA; U>C.

Data set [12] addresses T11, hPUF_MT(R7_E16R, R3→R5, R4→R6) (R7 repeat E16R).
T11 chain: T2 chain with N36S, E256R
Put plainly: EMSA; binds C and U.

For data set [13], the target named is T12, hPUF_MT(R7_S12N,E16Q, R3→R5, R4→R6) (R7 repeat S12N,E16Q).
T12 chain: T2 chain with N36S, S252N, E256Q
Nature of the data set: EMSA; binds U exclusively.

Data set [14] has as its target T3, hPUF_MT(R3→R5, R4→R6). Nature of the data set: EMSA; binds G exclusively at R7 position.
Data set [15] concerns the target T13, hPUF_MT(1-2-5-6-5-6-6-7-8).
T13 chain: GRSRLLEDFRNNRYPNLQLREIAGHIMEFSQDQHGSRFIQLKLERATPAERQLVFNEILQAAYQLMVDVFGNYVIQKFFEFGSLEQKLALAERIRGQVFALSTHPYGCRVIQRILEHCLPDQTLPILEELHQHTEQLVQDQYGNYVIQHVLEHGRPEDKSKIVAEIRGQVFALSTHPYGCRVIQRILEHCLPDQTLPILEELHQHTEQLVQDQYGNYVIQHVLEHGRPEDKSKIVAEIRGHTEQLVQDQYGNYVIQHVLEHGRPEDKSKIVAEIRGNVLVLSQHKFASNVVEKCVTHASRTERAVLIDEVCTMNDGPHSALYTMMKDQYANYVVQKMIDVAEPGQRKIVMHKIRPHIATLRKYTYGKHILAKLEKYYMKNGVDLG
Put plainly: EMSA.

Numbering of substitutions follows the chain as printed.

On to CCAGAAUUGUAUAUUAUUCG (ssRNA) [OTS-2080], for which, in data set [1], the binding signal was ~3 fold of WT.

CCAGAAUUGUAUAUUUUCG (ssRNA) [OTS-2022]: the binding result was “binds” in data set [2] and “binds” with hPUF_MT(R3→R5, R4→R6) [3].

For CCAGAAUUGUAUAUCUUCG (ssRNA) [OTS-2021], the binding result in the data set with hPUF_MT(R3→R5, R4→R6) [4] is recorded as “binds”; in data set [5] it was “binds”.

As for CCAGAAUUGUAUAAUAUUCG (ssRNA) [OTS-2081], in data set [6], the binding signal was ~3 fold of WT.

Consider CCAGAAUAGUAUAUAUUCG (ssRNA) [OTS-1825], for which the binding result is “no binding” in data set [7]; “no binding” in data set [8]; “no binding” with hPUF_MT(R8→R5); “no binding” with hPUF_MT(R3→R5, R4→R6) [9].

As to CCAGAAUUGUAUAUGUUCG (ssRNA) [OTS-2020], in data set [10], the binding result was “binds”.

Regarding CCAGAAUUUUAUAUAUUCG (ssRNA) [OTS-2032], the binding result in data set [11] is recorded as “binds”; in [12], “binds”; in data set [13], “binds”; in the data set with hPUF_MT(R3→R5, R4→R6) [14] it was “no binding”.

In the case of CCAGAAUUGUUAUAUAUUCG (ssRNA) [OTS-2082], the binding signal in [15] was ~3 fold of WT.
